To fix the notation:
B1: Heat shock 70 kDa protein 4 (Homo sapiens), P34932 (parent)
chain: MSVVGIDLGFQSCYVAVARAGGIETIANEYSDRCTPACISFGPKNRSIGAAAKSQVISNAKNTVQGFKRFHGRAFSDPFVEAEKSNLAYDIVQLPTGLTGIKVTYMEEERNFTTEQVTAMLLSKLKETAESVLKKPVVDCVVSVPCFYTDAERRSVMDATQIAGLNCLRLMNETTAVALAYGIYKQDLPALEEKPRNVVFVDMGHSAYQVSVCAFNRGKLKVLATAFDTTLGGRKFDEVLVNHFCEEFGKKYKLDIKSKIRALLRLSQECEKLKKLMSANASDLPLSIECFMNDVDVSGTMNRGKFLEMCNDLLARVEPPLRSVLEQTKLKKEDIYAVEIVGGATRIPAVKEKISKFFGKELSTTLNADEAVTRGCALQCAILSPAFKVREFSITDVVPYPISLRWNSPAEEGSSDCEVFSKNHAAPFSKVLTFYRKEPFTLEAYYSSPQDLPYPDPAIAQFSVQKVTPQSDGSSSKVKVKVRVNVHGIFSVSSASLVEVHKSEENEEPMETDQNAKEEEKMQVDQEEPHVEEQQQQTPAENKAESEEMETSQAGSKDKKMDQPPQAKKAKVKTSTVDLPIENQLLWQIDREMLNLYIENEGKMIMQDKLEKERNDAKNAVEEYVYEMRDKLSGEYEKFVSEDDRNSFTLKLEDTENWLYEDGEDQPKQVYVDKLAELKNLGQPIKIRFQESEERPKLFEELGKQIQQYMKIISSFKNKEDQYDHLDAADMTKVEKSTNEAMEWMNNKLNLQNKQSLTMDPVVKSKEIEAKIKELTSTCSPIISKPKPKVEPPKEEQKNAEQNGPVDGQGDNPGPQAAEQGTDTAVPSDSDKKLPEMDID

Results on two variants are retold here after IntAct's records for PubMed 22990239.

The assay covers variants of B1. The note with it: with hsp7c_human HSPA8, P11142.
Chain of hsp7c_human HSPA8, P11142 (P11142 whole entry, looked up): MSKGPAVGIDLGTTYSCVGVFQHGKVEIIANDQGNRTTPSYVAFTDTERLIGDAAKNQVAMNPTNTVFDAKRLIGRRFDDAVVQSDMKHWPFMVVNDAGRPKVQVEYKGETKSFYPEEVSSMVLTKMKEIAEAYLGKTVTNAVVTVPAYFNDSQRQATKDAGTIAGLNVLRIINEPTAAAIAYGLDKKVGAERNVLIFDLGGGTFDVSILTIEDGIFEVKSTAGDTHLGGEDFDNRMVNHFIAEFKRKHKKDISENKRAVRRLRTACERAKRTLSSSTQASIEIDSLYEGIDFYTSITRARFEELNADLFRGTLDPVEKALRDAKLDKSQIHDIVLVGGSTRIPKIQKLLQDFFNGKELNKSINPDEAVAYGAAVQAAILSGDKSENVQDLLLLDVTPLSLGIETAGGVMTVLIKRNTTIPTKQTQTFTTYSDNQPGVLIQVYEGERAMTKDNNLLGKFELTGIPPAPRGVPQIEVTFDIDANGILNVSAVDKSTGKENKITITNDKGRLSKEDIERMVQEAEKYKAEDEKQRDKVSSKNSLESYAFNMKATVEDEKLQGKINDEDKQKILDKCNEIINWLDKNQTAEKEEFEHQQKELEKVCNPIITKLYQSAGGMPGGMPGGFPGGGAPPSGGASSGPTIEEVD
On to N619Y, for which the “effect of a mutation on the interaction” value is “decreasing interaction”. Next, E622A: “decreasing interaction”.
